Assay results as given in publication PMC6280682, “The Micronemal Plasmodium Proteins P36 and P52 Act in Concert to Establish the Replication-Permissive Compartment Within Infected Hepatocytes” (Frontiers in Cellular and Infection Microbiology, 2018).

Biological target: T1, Plasmodium yoelii P36 with a C-terminal mCherry tag (P36^mCherry) (Plasmodium yoelii, UniProt Q7RPW4 25-310)
T1 construct: P36, Plasmodium yoelii 17X, 6-cys s48/45 family, two s48/45 domains; predicted MW with mCherry 66 kDa; also called Py P36^mCherry; not shown: mCherry, C-terminal, kept
T1 sequence: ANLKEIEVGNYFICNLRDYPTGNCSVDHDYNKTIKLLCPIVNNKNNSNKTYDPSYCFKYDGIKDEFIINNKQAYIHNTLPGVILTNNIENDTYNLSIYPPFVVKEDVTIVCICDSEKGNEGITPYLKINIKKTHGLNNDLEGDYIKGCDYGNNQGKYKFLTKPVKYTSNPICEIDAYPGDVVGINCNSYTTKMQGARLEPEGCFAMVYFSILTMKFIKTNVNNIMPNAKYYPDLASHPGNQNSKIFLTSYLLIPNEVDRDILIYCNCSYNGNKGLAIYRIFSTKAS
Assay: affinity purification with mass spectrometry; BS3-crosslinked P36^mCherry sporozoite lysate immunoprecipitated with RFP-Trap, S-Trap digest, LC-MS/MS (Q-Exactive HF), spectral counting
Details: partners not purified

B1: Plasmodium yoelii P52 (natural protein)
chain: NVPNPNTTIGHFEICEVNTSSGDAEECVLENEFGKMFLFICDIDYNEMSKNIVLPSECAKKTYIDHVNPNGTSPEVNTYDIFPDLIAANESQFRDKFYFYGTPYSSKDIDFICLCFSETKPDIKHVMKMSFKKMTKKIKGCDFGDNIPTKKDLTNGKALYENSSCHIYAYPGDVIGINCYKKDINNIYNNNLELQPNNCFHNVYYEDDILLSSKNLIPNSRVIPDPSNDVKLSKMHSYMSYIILPDEINENVKISCACKRDEYIGTMFLYVNTSKNILTSPDNNVEEIAPLNDHYISIGDMWDMGLHENPEQIQGIISNHANKKYYEHMKIYKSNKMDSSDDDESNETESSENESNERTHNGNRANKDANNSEKMTGNRRKKNNSINNTNYYSNYEDDNGINISTHDKYYEDQHFGNNGPLRKKRTFWQNMFGTS
notes: P52, Plasmodium yoelii 17X, 6-cys s48/45 family, two s48/45 domains; predicted MW 53 kDa; also called Py P52; source: endogenous, P. yoelii P36^mCherry salivary gland sporozoite lysate
  stoichiometry N: ~1
